Experimental data as given in publication PMC3412936.
One block for each substance: values may come before it.

Experiments:
Assay in all cases: ITC
[1] = target: WW2_Y85W mutant of the WW2 domain of WWOX (human) (UniProt Q9NZC7)
[2] = target: WW1_R25E mutant of the WW1 domain of WWOX (human) (UniProt Q9NZC7)
[3] = target: WW1_W44Y mutant of the WW1 domain of WWOX (human) (UniProt Q9NZC7)
[4] = target: WW1-WW2 tandem domains (residues 16-91) of human WWOX (human) (UniProt Q9NZC7)
[5] = target: engineered WW2_RW domain of WWOX (E66R/Y85W double-mutant of WW2 domain) (human) (UniProt Q9NZC7)
Sequence of engineered WW2_RW domain of WWOX (E66R/Y85W double-mutant of WW2 domain) (human) (Q9NZC7 57-91 E66R/Y85W): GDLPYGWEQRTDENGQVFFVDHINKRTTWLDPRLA

[6] = target: WW1 domain (residues 16-50) of human WWOX (human) (UniProt Q9NZC7)
Sequence of WW1 domain (residues 16-50) of human WWOX (human) (Q9NZC7 16-50): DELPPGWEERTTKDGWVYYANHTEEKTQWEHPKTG

[7] = target: WW2_E66R mutant of the WW2 domain of WWOX (human) (UniProt Q9NZC7)
Sequence of WW2_E66R mutant of the WW2 domain of WWOX (human) (Q9NZC7 57-91 E66R): as the sequence (Q9NZC7 57-91 E66R/Y85W) above, with W29Y counted along it

[8] = target: WW1_R25A mutant of the WW1 domain of WWOX (human) (UniProt Q9NZC7)
Sequence of WW1_R25A mutant of the WW1 domain of WWOX (human) (Q9NZC7 16-50 R25A): as the sequence (Q9NZC7 16-50) above, with R10A counted along it

[9] = target: WW2 domain (residues 57-91) of human WWOX (human) (UniProt Q9NZC7)
Sequence of WW2 domain (residues 57-91) of human WWOX (human) (Q9NZC7 57-91): as the sequence (Q9NZC7 57-91 E66R/Y85W) above, with R10E, W29Y counted along it

[10] = target: engineered WW1-WW2rw tandem domains of WWOX (human) (UniProt Q9NZC7)
Sequence of engineered WW1-WW2rw tandem domains of WWOX (human) (Q9NZC7 16-91 E66R/Y85W): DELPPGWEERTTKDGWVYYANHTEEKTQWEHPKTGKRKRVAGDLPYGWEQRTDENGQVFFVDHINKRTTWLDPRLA

Sequence of WW1-WW2 tandem domains (residues 16-91) of human WWOX (human) (Q9NZC7 16-91): as the sequence (Q9NZC7 16-91 E66R/Y85W) above, with R51E, W70Y counted along it
Sequence of WW2_Y85W mutant of the WW2 domain of WWOX (human) (Q9NZC7 57-91 Y85W): as the sequence (Q9NZC7 57-91 E66R/Y85W) above, with R10E counted along it
Sequence of WW1_W44Y mutant of the WW1 domain of WWOX (human) (Q9NZC7 16-50 W44Y): as the sequence (Q9NZC7 16-50) above, with W29Y counted along it
Sequence of WW1_R25E mutant of the WW1 domain of WWOX (human) (Q9NZC7 16-50 R25E): as the sequence (Q9NZC7 16-50) above, with R10E counted along it

Substance: PY3_Q-3A alanine mutant of the WBP2_PY3 peptide
- Kd [6]: 149 µM
- dH [6]: -12.4 kcal/mol

Substance: PY3_Y+4A alanine mutant of the WBP2_PY3 peptide
- Kd [6]: 229 µM
- dH [6]: -8.35 kcal/mol

The next lines start with the values.

- Kd [1]: > 1000 µM
- Kd [2]: > 1000 µM
- Kd [3]: > 1000 µM
- Kd [4]: 49 µM
- dH [4]: -8.46 kcal/mol
- stoichiometry N [4]: 1.05
- Kd [5]: 91 µM
- dH [5]: -5.2 kcal/mol
- Kd [6]: 122 µM
- dH [6]: -12.6 kcal/mol
- Kd [7]: > 1000 µM
- Kd [8]: > 1000 µM
- Kd [9]: > 1000 µM
- Kd [10]: 59 µM
- dH [10]: -8.02 kcal/mol
Substance: WBP2_PY3 peptide (12-mer spanning the PY3 PPXY motif of human WBP2)

- Kd [6]: 250 µM
- dH [6]: -18 kcal/mol
Substance: PY3_P-2A alanine mutant of the WBP2_PY3 peptide

- Kd [6]: 554 µM
- dH [6]: -4.95 kcal/mol
Substance: PY3_Y+3A alanine mutant of the WBP2_PY3 peptide
